The record followed here is PMC3215742.

Assay [1] deals with Renilla luciferase (RLuc)-fused tetherin (human) (UniProt Q10589).
Assay [2] has the same target. In words: FRET or BRET; BRET in HEK293T cells cotransfected with RLuc-tetherin and Vpu-eYFP (or eYFP alone); media with 10 µM BIT225 or DMSO from 6 h after transfection; cells collected 48 h post-transfection, washed in PBS; coelenterazine H 5 µM; Synergy 4 plate reader.

UniProt Q10589, sequence (Q10589 1-161): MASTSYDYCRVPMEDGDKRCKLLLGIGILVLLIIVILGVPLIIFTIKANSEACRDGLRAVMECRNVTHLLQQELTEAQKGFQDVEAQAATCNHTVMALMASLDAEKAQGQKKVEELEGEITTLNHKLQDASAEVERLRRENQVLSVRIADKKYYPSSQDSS

As to “enhanced yellow fluorescent protein (eYFP)-fused Vpu (from UniProt P05919 1-82) (natural protein)”, in assay [1], the tetherin cell surface expression (flow cytometry) in wt infected CEM-SS cells compared to uninfected populations; not affected by 10 µM BIT225 came out at 75% and the tetherin cell surface expression (flow cytometry) in wt infected SupT1-tetherin^pos cells compared to uninfected controls; not affected by 10 µM BIT225 came to 70%. In addition, in assay [2], the BRET signal (DMSO, without BIT225) was found to be 52 and the BRET signal (with 10 µM BIT225) worked out at 51.
